Results taken from US20040259172A1.
Numbered stars: 1 amine (or outer) side, 2 acyl side, 3 side chain; on linkers, the order of the positions; unused ones are H or OH. Square brackets hold non-standard residues; d marks the D form. Ends that are not written are not given here. βAsp = O=C(O)[C@H](CC(=O)[*:2])N[*:1]

Biological target: mouse-anti-β-COMP sera (polyclonal antiserum specific for the human COMP derived sequence AQEDβSDH)
Test: competitive ELISA: free peptide competes with biotinylated β-COMP on streptavidin plates for the mouse anti-β-COMP serum

IC50 [µg/mL]	Binder
0.038	AQE[βAsp]SDH
0.435	AQEDSDH [α-COMP peptide (non-isomerised (α) form of the COMP peptide)]
